Results: US7960513B2, “Antibody against a human ADAM protease” (Monash University, priority 2004, dated 2011)

Molecular target: T1, EphA3/ephrin-A5 complex (Homo sapiens, UniProt P29320+P52803)
T1 construct: Fc fusion proteins of the ephrin-A5 and EphA3 extracellular domains fused to the hinge and Fc region of human IgG1 were produced as described; expressed in transfected cells; host or cells: EphA3/HEK293 cells; ephrin-A5-Fc added as soluble pre-clustered protein
T1 sequence (P29320 21-983): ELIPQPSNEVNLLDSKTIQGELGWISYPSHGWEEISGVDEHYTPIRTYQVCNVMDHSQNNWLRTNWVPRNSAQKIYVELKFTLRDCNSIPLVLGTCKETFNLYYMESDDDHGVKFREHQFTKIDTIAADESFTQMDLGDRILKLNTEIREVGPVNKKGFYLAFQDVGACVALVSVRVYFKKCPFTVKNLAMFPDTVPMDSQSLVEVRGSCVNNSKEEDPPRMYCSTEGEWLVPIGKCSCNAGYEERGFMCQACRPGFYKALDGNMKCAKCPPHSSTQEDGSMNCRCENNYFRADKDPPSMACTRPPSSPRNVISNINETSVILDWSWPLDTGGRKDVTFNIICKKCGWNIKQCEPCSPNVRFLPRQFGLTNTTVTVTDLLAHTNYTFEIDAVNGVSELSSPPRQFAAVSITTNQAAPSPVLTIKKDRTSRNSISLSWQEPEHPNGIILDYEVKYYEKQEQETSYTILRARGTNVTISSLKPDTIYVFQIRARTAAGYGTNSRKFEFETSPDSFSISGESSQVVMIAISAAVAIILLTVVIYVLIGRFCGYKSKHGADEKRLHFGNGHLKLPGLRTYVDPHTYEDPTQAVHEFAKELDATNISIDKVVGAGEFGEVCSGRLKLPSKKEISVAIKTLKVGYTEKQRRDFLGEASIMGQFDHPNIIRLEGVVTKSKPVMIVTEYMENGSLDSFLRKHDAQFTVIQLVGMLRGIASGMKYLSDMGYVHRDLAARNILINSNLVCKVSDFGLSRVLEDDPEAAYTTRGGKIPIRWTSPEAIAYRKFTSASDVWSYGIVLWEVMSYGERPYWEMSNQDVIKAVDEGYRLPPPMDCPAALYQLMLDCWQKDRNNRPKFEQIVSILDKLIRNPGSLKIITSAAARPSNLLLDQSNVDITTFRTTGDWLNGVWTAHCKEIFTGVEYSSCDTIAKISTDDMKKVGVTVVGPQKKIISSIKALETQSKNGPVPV
T1 sequence (P52803 21-203 limits assumed): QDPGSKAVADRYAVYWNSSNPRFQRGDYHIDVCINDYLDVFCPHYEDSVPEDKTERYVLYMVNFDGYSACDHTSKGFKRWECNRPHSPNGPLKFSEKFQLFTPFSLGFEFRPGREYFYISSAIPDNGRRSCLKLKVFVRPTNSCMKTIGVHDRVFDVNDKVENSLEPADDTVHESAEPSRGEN
Assay: Co-immunoprecipitation from transfected cells treated with pre-clustered ephrin-A5-Fc
Format: cell-based
Settings: EphA3/293 cells, pre-clustered ephrin-A5-Fc 10 min
Protocol: FIG. 4. Mutation of acidic residues in the ADAM10 Cys-rich domain affects binding to EphA3/ephrin-A5 and cleavage of ephrin-A5. • A. In vitro binding of mutant ADAM10D+C to EphA3/ephrin-A5. ADAM10D+C[EEE-A] containing Alanine substitutions of Glu573, Glu578, Glu579 (lanes 1-4) or ADAM10D+C[RDD-A] (Ala substitutions of Arg525, Asp526, Asp527, lanes 5-8) were incubated alone (lanes 1, 5), or together with EphA3-Fc (lanes 2, 6), ephrin-A5-Fc (lanes 3, 7), or EphA3-Fc and ephrin-A5 (lanes 4, 8). Complexed proteins were extracted with Protein-A-Sepharose beads and analysed as in FIG. 2. • B. Binding of wild-type and mutant ADAM10ΔMP to EphA3 in cells. EphA3/293 cells were transfected with HA-ADAM10ΔMP or HA-ADAM10ΔMP [EEE-A]. Parental and transfected cells were treated for 10 min with or without pre-clustered ephrin-A5-Fc and lysed. Anti-HA and anti-EphA3 immunoprecipitates, and total cell lysates were analysed by Western blotting with indicated antibodies. • C. Ephrin-A5-Fc cleavage in cells expressing wt and 3A mutant ADAM10. EphA3/293 cells were transfected with full length, wild-type (wt) ADAM10, dominant-negative ADAM10ΔMP, or ADAM10 bearing alanine (3A) or 3 lysine (3K) substitutions of Glu573, 578, 579. Following exposure to clustered (+) or non-clustered ? ephrin-A5 Fc, cleaved ephrin was recovered and analysed by Western Blot as described in FIG. 1c. […]

- interaction with the EphA3/ephrin-A5 complex in cells: significantly inhibited
B1: ADAM10Δpro: cell-surface ADAM10Δpro incorporating the EEE-A amino acid substitutions (protein)
chain: SGQPICGNGMVEQGEECDCGYSDQCKDDCCFDANQPEGKKCKLKPGKQCSPSQGPCCTAQCAFKSKSEKCRDDSDCAKEGICNGFTALCPASDPKPNFTDCNRHTQVCINGQCAGSICAKYDLAACTCASSDGKDDKELCHVCCMKKMAPSTCASTGSLQWSKQFSGRTITLQPGSPCNDFRGYCDVFMRCRLVDADGPLARLKKAIFSPQLYENIAEWIVAHWWAVLLMGIALIMLMAGFIKICSVHTPSSNPKLPPPKPLPGTLKRRRPPQPIQQPPRQRPRESYQMGHMRR
modifications: left off: small tags and cut ends
notes: cell-surface ADAM10Δpro incorporating the EEE-A amino acid substitutions
